One molecule from patent US20240400635A1 (Novo Nordisk, published 2024) can be followed below.

Assay in all cases: cell-based or functional assay
In one assay the target is FGF receptor/BKL complex (human, UniProt Q86Z14 1-1044).
Assay [1] concerns the target T1, human GLP-1 receptor (human, UniProt P43220 24-463).
Assay [2] deals with T1, human GLP-1 receptor. This is another data set of the same source.

FGF receptor/BKL complex, sequence (Q86Z14 whole entry, one chain of several): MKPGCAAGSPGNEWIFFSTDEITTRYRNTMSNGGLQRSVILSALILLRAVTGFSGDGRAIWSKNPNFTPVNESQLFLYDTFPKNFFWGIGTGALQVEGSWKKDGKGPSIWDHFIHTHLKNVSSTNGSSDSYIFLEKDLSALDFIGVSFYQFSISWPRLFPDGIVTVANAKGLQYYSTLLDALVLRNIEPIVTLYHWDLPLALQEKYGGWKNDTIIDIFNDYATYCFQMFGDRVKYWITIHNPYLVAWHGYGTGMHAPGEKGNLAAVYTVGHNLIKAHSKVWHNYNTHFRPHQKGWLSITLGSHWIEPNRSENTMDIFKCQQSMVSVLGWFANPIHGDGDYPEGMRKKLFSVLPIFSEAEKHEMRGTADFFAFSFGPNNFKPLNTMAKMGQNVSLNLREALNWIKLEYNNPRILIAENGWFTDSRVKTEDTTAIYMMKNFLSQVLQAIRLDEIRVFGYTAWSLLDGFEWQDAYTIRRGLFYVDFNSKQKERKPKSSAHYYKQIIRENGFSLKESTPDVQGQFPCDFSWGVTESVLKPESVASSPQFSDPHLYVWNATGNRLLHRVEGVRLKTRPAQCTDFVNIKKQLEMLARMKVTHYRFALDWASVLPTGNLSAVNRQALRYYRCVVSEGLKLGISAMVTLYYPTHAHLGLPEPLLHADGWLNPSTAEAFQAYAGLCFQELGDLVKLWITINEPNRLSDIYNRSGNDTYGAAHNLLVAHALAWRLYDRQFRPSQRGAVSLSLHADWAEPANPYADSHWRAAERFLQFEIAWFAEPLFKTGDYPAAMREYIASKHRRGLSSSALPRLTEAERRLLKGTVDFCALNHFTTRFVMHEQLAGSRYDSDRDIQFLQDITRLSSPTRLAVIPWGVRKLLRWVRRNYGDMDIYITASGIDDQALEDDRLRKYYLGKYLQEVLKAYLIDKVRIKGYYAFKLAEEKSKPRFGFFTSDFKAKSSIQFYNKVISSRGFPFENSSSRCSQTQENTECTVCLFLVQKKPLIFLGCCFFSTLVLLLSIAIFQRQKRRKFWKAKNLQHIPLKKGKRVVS

B1: S{Beta-26}-[2-[2-[[2-[2-[2-[[2-[2-[2-[[(4S)-4-carboxy-4-(17-carboxyheptadecanoyl-amino)butanoyl]amino]ethoxy]ethoxy]acetyl]amino]ethoxy]ethoxy]acetyl]amino]-eth … (ligand)
chain: HGEGTFTSDVSSYLEEQAACEFIAWLVKGGGGAQPGAQPGAQPGAQPAHPIPDSSPLLQFGGQVRQRYLYTDDAQQTEAHLEIREDGTVGGAADQSPESLLQLKALKPGVIQILGVKTSRFLCQRPDGALYGSLHFDPEACSFRELLLEDGYNVYQSEAHGLPLHLPGQKSPHRDPAPRGPARFLPLPGLPPALPEPPGILAPQPPDVGSSDPLSLVGGSQGRSPSYAS
modifications: Cys26 of the GLP-1 part (GLP-1(7-37) numbering; residue 20 of the chain) S-alkylated with substituent Chem. 7
As for B1, in the assay with FGF receptor/BKL complex, the “FGF1 receptor potency [EC50] nM 0.1% HSA” value stood at 0.51 nM and the “FGF21 receptor potency [EC50] nM 0% HSA” value is 0.43 nM. Also, in the assay with human GLP-1 receptor [1], the “GLP-1 receptor potency [EC50] pM 0% HSA” value stood at 67.4 pM and the “GLP-1 receptor potency [EC50] pM 1% HSA” value was 397 pM. In addition, the “GLP-1R potency loss against Chem. 24, absence of HSA” value with human GLP-1 receptor [2] was over 10 fold.
